Experimental data as given in patent US20170334973A1 (INTEGRATED BIOTHERAPEUTICS, published 2017).

B1: FVM05 (antibody, V domains shown)
VH: QVQLQESGPGLVKPSETLSLTCAVSGFSISSGYGWSWIRQPPGKGLEWIGYIGGSSGSTSYNPSLKSRVTLSADTSKNQFSLKLSSVTAADTAVYYCARRYSSYRSWFDVWGPGVLVTVSS
VL: SSGLTQPRSVSVSPGQTARITCGGDNIGSKSVHWYQQKPPQAPVLVIYADSERPSGIPERFSGSNSGNTATLTISGVEAGDEADYYCQVWDSSSDHWVFGGGTRLTVL
B2: FVM29 (antibody, V domains shown)
VH: EVQLVQSGAEVKRPGESLKISCQTSGNSFTNNWISWVRQMPGKGLEWMGAIDPSDSETRYSPSFQGQVTISADKSINTAYLQWSSLKASDTATYYCVKGSETWGQGVLVTVSS
VL: QPVLTQPASLSASPGASASLTCTFSGGINVAGYNILWYQQKAGSPPRYLLRYKSDSTKDQGSGVPSRFSGSKDASANTGILRISGLQSEDEADYYCAIGHSSGWIFGGGTRLTVL
B3: FVM08 (antibody, V domains shown)
VH: EVQLVQSGAEVKRPGESLTISCKTSGYSFTDSWVAWVRQMPGKGLEWMGSIYPGDSDTRYNPSFEGQVTISADKSISTTYLQWSSLRASDTATYYCVKGADDWGQGVLVTVSS
VL: QPVLTQPASLSASPGASASLTCTFSGGINVAGYNILWYQQKAGSPPRYLLRYKSDSTKDQGSGVPSRFSGSKDASANTGILRISGLQSEDEADYYCAIGHSSGWIFGGGTRLTVL
B4: FVM07 (antibody, V domains shown)
VH: EVQLVQSGAEVKRPGESLTISCKTSGYSFTDSWIGWVRQMPGKGLEWMGSIYPGDSDTKYNPSFQGHVTISADKSISTTYLQWSSLKASDTATYYCVAREAYWGQGVLVTVSS
VL: QPVLTQPASLSASPGASASLTCTFSGGINVAGYHIFWYQQKPGSPPRYLLRYKSDSDKGQGSGVPSRFSGSKDASANTGILRISGLQSEDEADYYCAIGHSSGVLFGGGTRLTVL
B5: FVM39 (antibody, V domains shown)
VH: EVQLVQSGAEVKRPGESLRISCKTSGYSFTDSWISWVRQMPGKGLEWLGSIYPGDSETKYNPSFQGHVTISADKSVTTTYLKWSSLKASDTATYYCVKGSETWGQGVLVTVSS
VL: QPVLTQPASLSASPGASASLTCTFSGGINVAGYNILWYQQKAGSPPRYLLRYKSDSTKDQGSGVPSRFSGSKDASANTGILRISGLQSEDEADYYCAIGHSSGWIFGGGTRLTVL
B6: FVM26 (antibody, V domains shown)
VH: QVQLVQSGAEVKRPGESLRISCKTSGYTFTDYWIAWVRQMPGKGLEWMGSIYPGDSETKYNPSFQGHVTISADKSVTTTYLKWSRLKASDTATYYCVKGSETWGQGVLVTVSS
VL: QPVLTQPASLSASPGASASLTCTFSGGINVAGYNILWYQQKAGSPPRYLLRYKSDSTKDQGSGVPSRFSGSKDASANTGILRISGLQSEDEADYYCAIGHSSGWIFGGGTRLTVL
B7: FVM15 (antibody, V domains shown)
VH: QVQLVQSGAEVKRPGESLRISCKTSGYTFTDYWIAWVRQMPGKGLEWMGSIYPGDSETKYNPSFQGHVTISADKSVTTTYLKWSRLKASDTATYYCVKGSETWGQGVLVTVSS
VL: QPVLTQPASLSASPGASASLTCTFSGGINVAGYNILWYQQKAGSPPRYLLRYKSDSTKDQGSGVPSRFSGSKDASANTGILRISGLQSEDEADYYCAIGHSSGWIFGGGTRLTVL
B8: FVM14 (antibody, V domains shown)
VH: EVQLVQSGAEVKRPGESLKISCQTSGYSFTSTWITWVRQMPGKGLEWLGSIYPGDSETKYNPSFQGHVTISADKSISTTYLQWNSLKASDTATYYCVKGSETWGQGVLVTVSS
VL: QAVVTQPASLSASPGASASLTCTFSGGINVAGYNILWYQQKAGSPPRYLLRYKSDSTKDQGSGVPSRFSGSKDASANTGILRISGLQSEDEADYYCAIGHSSGWIFGGGTRLTVL
B9: FVM33 (antibody, V domains shown)
VH: QVQLVQSGAEVKRPGESLKISCKTSRYSFTSSWIGWVRQMPGKGLEWLGSIYPGDSDTRYNPSFQGHVTISADKSVTTTYLKWSSLKASDTATYYCVKGSETWGQGVLVTVSS
VL: QPVLTQPASLSASPGASASLTCTFSGGINVAGYNILWYQQKAGSPPRYLLRYKSDSTKDQGSGVPSRFSGSKDASANTGILRISGLQSEDEADYYCAIGHSSGWIFGGGTRLTVL
B10: FVM27 (antibody, V domains shown)
VH: EVQLVQSGAEVKRPGESLKISCKTSGYSFASSWISWVRQMPGKGLEWMGAIDPSDSATRYSPSFQGQVTISADKSISTAYLQWSSLKASDTATYYCVKGSETWGQGVLVTVSS
VL: QPVLTQPASLSASPGASASLTCTFSGGINVAGYNILWYQQKAGSPPRYLLRYKSDSTKDQGSGVPSRFSGSKDASANTGILRISGLQSEDEADYYCAIGHSSGWIFGGGTRLIVL
B11: FVM22 (antibody, V domains shown)
VH: EVQLVQSGAEVKRPGESLTISCKTSGYSFTDSWVAWVRQMPGKGLEWLGSIYPGDSETKYNPSFQGHVTISADKSISTAYLQWSSLKASDTATYYCAKGSETWGQGVLVTVSS
VL: SSGLTQPASLSASPGASASLTCTFSGGINVAGYNILWYQQKAGSPPRYLLRYKSDSTKDQGSGVPSRFSGSKDASANTGILRISGLQSEDEADYYCAIGHSSGWIFGGGTRLTVL
B12: FVM16 (antibody, V domains shown)
VH: EVQLVQSGAEVKRPGESLKISCRTSGYSFTSTWINWVRQMPGKGLEWLGSIYPGDSETKYNPSFQGHVTISADKSVTTTYLKWSSLKASDTATYYCVKGSETWGQGVLVTVSS
VL: KPMLTQPASLSASPGASASLTCTFSGGINVAGYNILWYQQKAGSPPRYLLRYKSDSTKDQGSGVPSRFSGSKDASANTGILRISGLQSEDEADYYCAIGHSSGWVFGGGTRLTVL
B13: FVM31 (antibody, V domains shown)
VH: QVQLVQSGAEVKRPGESLTISCKTSGYSFTDSWVAWVRQMPGKGLEWLGSIYPGDSDARYNPSFQGHVTISADTSVTTTYLKWSSLKASDTATYYCVKGSETWGQGVLVTVSS
VL: KPMLTQPASLSASPGASASLTCTFSGGINVAGYNILWYQQKAGSPPRYLLRYKSDSTKDQGSGVPSRFSGSKDASANTGILRISGLQSEDEADYYCAIGHSSGWIFGGGTRLTVL
B14: FVM06 (antibody, V domains shown)
VH: EVQLVQSGAEVKRPGESLTISCKTSGYSFTNYWISWVRQMPGEGLEWMGAIDPSDSDTRYSPSFQGQVTMSADKSITTAYLQWSSLKASDTATYYCVKGSETWGQGVLVTVSS
VL: QPVLTQPASLSASPGASASLTCTFSGGINVAGYNILWYQQKAGSPPRYLLRYKSDSTKDQGSGVPSRFSGSKDASANTGILRISGLQSEDEADYYCAIGHSSGWIFGGGTRLTVL
B15: FVM34 (antibody, V domains shown)
VH: EVQLVESGAEVKRPGESLTISCKTSGYSFTDSWVSWVRQMPGKGLEWMGSIYPGDSETKYNPSFQGHVTISADKSVTTTYLKWSSLKASDTATYYCVKGSETWGQGVLVTVSS
VL: QPVLTQPASLSASPGASASLTCTFSGGINVAGYYIHWYQQKPGSPPRYLLRYKSDSDKHQGSGVPSRFSGSKDASANTGILRISGLQSEDEADYYCAIGHSSGWVFGGGTRLTVL
B16: FVM11 (antibody, V domains shown)
VH: EVQLVQSGAEVKRPGESLTISCKTSGYSFTDSWVAWVRQMPGKGLEWLGSIYPGDSETKYNPSFQGHVTISADKSVTTTYLKWSSLKASDTATYYCVKGSETWGQGVLVTVSS
VL: NFMLTQPASLSASPGASASLTCTFSGGINVAGYNILWYQQKAGSPPRYLLRYKSDSTKDQGSGVPSRFSGSKDASANTGILRISGLQSEDEADYYCAIGHSSGWIFGGGTRLTVL
B17: FVM04 (antibody, V domains shown)
VH: EVQLVQSGGGLVQPGGSMRLSCEASGLSLSDYFMHWVRQAQGKGLEWIGLIQTKAFTYKTEYPAAVKGRFTISRDDSKNTLYLQMSSLKPEDTALYYCIAVTPDFYYWGQGVLVTVSS
VL: DVVMTQSPSFLSASVGDRVTITCRASQDITINLNWFQHKPGKAPKRLIYVASRLERGVPSRFSGSGSGTEFTLTISSLQPEDFATYYCQQYNNYPLTFGPGTKLDIKR

Assays:
EBOV VLP = molecular target: T1, EBOV VLP (Ebola virus (EBOV), UniProt Q05320 33-676); test: ELISA
T1 sequence: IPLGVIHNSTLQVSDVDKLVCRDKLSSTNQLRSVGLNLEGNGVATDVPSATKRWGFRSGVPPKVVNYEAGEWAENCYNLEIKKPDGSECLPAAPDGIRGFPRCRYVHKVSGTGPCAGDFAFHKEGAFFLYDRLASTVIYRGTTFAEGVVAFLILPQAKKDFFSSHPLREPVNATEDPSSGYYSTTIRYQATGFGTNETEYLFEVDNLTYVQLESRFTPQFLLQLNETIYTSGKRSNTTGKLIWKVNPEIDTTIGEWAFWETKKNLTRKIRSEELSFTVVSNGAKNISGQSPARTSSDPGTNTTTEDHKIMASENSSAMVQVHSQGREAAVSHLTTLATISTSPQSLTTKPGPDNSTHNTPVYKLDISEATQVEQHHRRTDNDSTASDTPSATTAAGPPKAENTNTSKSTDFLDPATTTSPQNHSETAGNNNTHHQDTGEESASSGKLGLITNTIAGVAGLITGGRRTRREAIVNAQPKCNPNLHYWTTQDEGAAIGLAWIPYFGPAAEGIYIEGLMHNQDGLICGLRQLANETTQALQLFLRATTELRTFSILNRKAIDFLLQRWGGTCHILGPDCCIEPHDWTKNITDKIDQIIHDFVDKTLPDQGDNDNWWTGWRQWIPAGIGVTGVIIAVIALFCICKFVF

SUDV VLP = molecular target: T2, SUDV VLP (Sudan virus (SUDV), UniProt Q66814 33-676); test: ELISA
T2 sequence: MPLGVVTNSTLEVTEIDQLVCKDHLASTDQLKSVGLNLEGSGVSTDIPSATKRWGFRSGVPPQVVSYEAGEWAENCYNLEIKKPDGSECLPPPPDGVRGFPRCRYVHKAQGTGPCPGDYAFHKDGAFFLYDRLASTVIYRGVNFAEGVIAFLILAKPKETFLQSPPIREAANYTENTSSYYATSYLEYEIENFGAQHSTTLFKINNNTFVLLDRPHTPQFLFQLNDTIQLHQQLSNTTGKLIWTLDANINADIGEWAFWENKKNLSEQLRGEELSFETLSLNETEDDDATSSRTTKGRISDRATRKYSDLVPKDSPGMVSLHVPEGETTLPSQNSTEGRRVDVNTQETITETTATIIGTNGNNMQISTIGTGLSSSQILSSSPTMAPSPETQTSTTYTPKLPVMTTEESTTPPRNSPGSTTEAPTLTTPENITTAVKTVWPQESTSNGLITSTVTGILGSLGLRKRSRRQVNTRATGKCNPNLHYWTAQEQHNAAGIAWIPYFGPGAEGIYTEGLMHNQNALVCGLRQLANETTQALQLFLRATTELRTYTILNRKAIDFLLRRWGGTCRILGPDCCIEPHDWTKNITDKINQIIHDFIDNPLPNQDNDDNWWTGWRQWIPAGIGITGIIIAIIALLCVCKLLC

Binder | EC50 (EBOV VLP) [pM] | EC50 (SUDV VLP) [pM]
B1 | 18000 | –
B2 | – | 24100
B3 | 193 | 135
B4 | 1710 | 18200
B5 | 80 | 47
B6 | 260 | 153
B7 | 151 | 129
B8 | 780 | 157
B9 | 173 | 80
B10 | 233 | 120
B11 | 253 | 173
B12 | 655 | 1430
B13 | 320 | 193
B14 | 215 | 213
B15 | 193 | 227
B16 | 219 | 189
B17 | 306 | 193
